From US20240368238A1 (DRACOTERPIN BIOMEDICINE, published 2024)
Positions count from the first letter of the chain named.

T1: IL-2Rβ/γ-Fc heterodimer (IL-2Rβ-Fc-hole + IL-2Rγ-Fc-knob) (UniProt P14784 27-240; P31785 23-262)
T1 construct: Both chains transfected together into HEK293; purified with Protein A and Superdex 200; used as the analyte in the BLI; also called IL-2Rβ/γ heterodimers; not shown: Fc hole; Fc knob
T1 sequence (looked up) 1: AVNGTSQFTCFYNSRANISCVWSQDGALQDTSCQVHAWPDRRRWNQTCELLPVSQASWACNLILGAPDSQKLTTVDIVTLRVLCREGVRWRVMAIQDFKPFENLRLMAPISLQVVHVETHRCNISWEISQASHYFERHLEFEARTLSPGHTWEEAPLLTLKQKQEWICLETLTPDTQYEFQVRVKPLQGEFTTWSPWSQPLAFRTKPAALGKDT
T1 sequence (looked up) 2: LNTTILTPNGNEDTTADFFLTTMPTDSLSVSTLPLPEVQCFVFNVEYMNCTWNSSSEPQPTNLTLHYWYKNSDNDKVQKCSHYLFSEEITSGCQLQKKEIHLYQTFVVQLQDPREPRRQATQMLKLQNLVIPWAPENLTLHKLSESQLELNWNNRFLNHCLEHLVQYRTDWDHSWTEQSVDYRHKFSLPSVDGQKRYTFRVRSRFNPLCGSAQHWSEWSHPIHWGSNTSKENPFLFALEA

T2: IL2-Rα-his (UniProt P01589 22-240, limits assumed)
T2 construct: used as the analyte in the BLI; also called IL-2 receptor α; CD25; not shown: his tag
T2 sequence (looked up): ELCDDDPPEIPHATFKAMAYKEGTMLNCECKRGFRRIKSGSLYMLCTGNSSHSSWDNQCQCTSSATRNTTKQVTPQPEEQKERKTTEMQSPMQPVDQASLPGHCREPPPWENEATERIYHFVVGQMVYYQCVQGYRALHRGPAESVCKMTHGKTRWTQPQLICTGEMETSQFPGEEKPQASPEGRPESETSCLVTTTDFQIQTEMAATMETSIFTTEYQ

T3: IL-2Rβ/γ receptor subunit complex on CTLL-2 cells (UniProt P16297 27-539; P34902 23-369)
T3 sequence (looked up) 1: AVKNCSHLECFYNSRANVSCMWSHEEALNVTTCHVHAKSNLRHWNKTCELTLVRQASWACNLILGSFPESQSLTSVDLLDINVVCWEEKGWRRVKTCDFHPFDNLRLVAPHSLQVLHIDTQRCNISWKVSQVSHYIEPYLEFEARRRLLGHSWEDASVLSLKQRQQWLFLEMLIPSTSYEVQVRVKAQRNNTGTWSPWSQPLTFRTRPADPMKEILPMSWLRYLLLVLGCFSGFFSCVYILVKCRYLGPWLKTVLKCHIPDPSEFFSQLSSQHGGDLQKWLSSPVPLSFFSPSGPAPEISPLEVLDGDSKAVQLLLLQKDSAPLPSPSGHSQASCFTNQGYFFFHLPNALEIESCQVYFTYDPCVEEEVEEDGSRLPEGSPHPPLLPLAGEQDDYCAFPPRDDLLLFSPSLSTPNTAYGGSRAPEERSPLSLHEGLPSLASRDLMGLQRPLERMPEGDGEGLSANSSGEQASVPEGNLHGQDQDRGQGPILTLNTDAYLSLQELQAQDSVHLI
T3 sequence (looked up) 2: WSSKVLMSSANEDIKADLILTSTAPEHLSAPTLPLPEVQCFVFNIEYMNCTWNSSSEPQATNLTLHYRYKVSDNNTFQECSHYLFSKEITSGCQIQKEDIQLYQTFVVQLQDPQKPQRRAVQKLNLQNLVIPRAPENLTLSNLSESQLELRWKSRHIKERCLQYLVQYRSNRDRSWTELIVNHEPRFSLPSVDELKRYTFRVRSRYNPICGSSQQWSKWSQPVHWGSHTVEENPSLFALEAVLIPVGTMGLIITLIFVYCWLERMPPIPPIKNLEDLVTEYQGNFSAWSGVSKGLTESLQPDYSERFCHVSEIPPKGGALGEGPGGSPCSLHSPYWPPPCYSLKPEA

B1: IL-2-4 (43-45 + 125) (ligand)
chain: APTSSSTKKTQLQLEHLLLDLQMILNGINNYKNPKLTRMLTFGMPKKATELKHLQCLEEELKPLEEVLNLAQSKNFHLRPRDLISNINVIVLELKGSETTFMCEYADETATIVEFLNRWITFAQSIISTLT
notes: Human IL-2 variant; HEK293 expression, purified by the HPC4 tag; not shown: HPC4 tag at the C-terminus
B2: IL-2-7 (31-32 + 43-45 + 125) (ligand)
chain: B1 chain with Y31G, K32G
notes: as for B1
B3: IL-2-6 (35-41 + 43-45 + 125) (ligand)
chain: APTSSSTKKTQLQLEHLLLDLQMILNGINNYKNPMHGLDGFGMPKKATELKHLQCLEEELKPLEEVLNLAQSKNFHLRPRDLISNINVIVLELKGSETTFMCEYADETATIVEFLNRWITFAQSIISTLT
notes: as for B1
B4: IL-2-9 (35-41 + 43-45 + 125) (ligand)
chain: B3 chain with M35G, H36G, L38G, D39G
notes: as for B1
B5: IL-2-1 (31-32 + 35-41 + 43-45 + 125) (ligand)
chain: B3 chain with Y31G, K32G
notes: as for B1
B6: IL-2-8 (35-43 + 125) (ligand)
chain: B3 chain with H36G, D39G, G42Y
notes: as for B1
B7: IL-2-2 (35-41 + 125) (ligand)
chain: APTSSSTKKTQLQLEHLLLDLQMILNGINNYKNPMHGLDGFKFYMPKKATELKHLQCLEEELKPLEEVLNLAQSKNFHLRPRDLISNINVIVLELKGSETTFMCEYADETATIVEFLNRWITFAQSIISTLT
notes: as for B1
B8: IL-2-5 (31-32 + 35-41 + 125) (ligand)
chain: B7 chain with Y31G, K32G
notes: as for B1
B9: IL-2-3 (31-32 + 125) (ligand)
chain: APTSSSTKKTQLQLEHLLLDLQMILNGINNGGNPKLTRMLTFKFYMPKKATELKHLQCLEEELKPLEEVLNLAQSKNFHLRPRDLISNINVIVLELKGSETTFMCEYADETATIVEFLNRWITFAQSIISTLT
notes: as for B1

Legend:
[1] = molecular target: T1, IL-2Rβ/γ-Fc heterodimer (IL-2Rβ-Fc-hole …); assay: BLI (Octet RED96e), AR2G sensors, IL-2Rβ/γ-Fc heterodimer as analyte, 1:1 global fit
Procedure: (§1) Experimental data were processed using Data Analysis software 9.0. […] The method of global fitting was applied, i.e., the 6 concentrations were analyzed as a group.

IL2-Rα-his [2] = molecular target: T2, IL2-Rα-his; assay: Octet BLI per Example 2, IL-2Rα-his as analyte at the concentration on the x axis; y axis on the sheet reads OD490
Procedure: (§2) 2. The experiment was performed with reference to the experimental design below. The whole experiment was completed under the conditions of 30° C., 1000 rpm, 220 μl/well. The proteins used in the experiment were IL2-Rα-his and IL-2 variants or derivatives thereof obtained by transient expression in HEK293 and affinity purification.
as §1

[3] = molecular target: T3, IL-2Rβ/γ receptor subunit complex on …; assay: cell-based or functional assay
[4] = molecular target: T1, IL-2Rβ/γ-Fc heterodimer (IL-2Rβ-Fc-hole …); assay: Octet BLI per Example 3, IL-2Rβ/γ-Fc heterodimer as analyte at the concentration on the x axis; y axis on the sheet reads OD490
Procedure: as §1

IL2-Rα-his [5] = molecular target: T2, IL2-Rα-his; assay: BLI (Octet RED96e), AR2G sensors, IL-2Rα-his as analyte, 1:1 global fit
Procedure: as §2, §1

| Binder | Kd [1] [nM] | EC50 (read off the curve) (IL2-Rα-his [2]) [nM] | Relative activity (CTLL-2 cell proliferation, CCK-8) [3] [%] | EC50 (read off the curve) [4] [nM] | Kd (IL2-Rα-his [5]) [nM] | binding result (IL2-Rα-his [2]) |
| --- | --- | --- | --- | --- | --- | --- |
| B1 | 4.11 | ~60 | 100 | ~100 | 0.799 |  |
| B2 | 6.48 | ~70 | 58 | ~100 | 3.25 |  |
| B3 | 19.6 |  | 13 | ~100 |  | no binding (tested: 500 nM) |
| B4 | 27.2 |  | 8 | ~100 |  | no binding (tested: 500 nM) |
| B5 | 17.9 |  | 13 | ~100 |  | no binding (tested: 500 nM) |
| B6 | 21.3 |  | 8 | ~100 |  | no binding (tested: 1000 nM) |
| B7 | 4.87 | ~60 | 64 | ~100 | 0.789 |  |
| B8 | 5.24 | ~60 | 90 | ~100 | 0.904 |  |
| B9 | 3.74 | ~60 | 100 | ~100 | 0.656 |  |
